Experimental data as given in patent US20220002427A1, “BISPECIFIC ANTIBODY AGAINST BCMA AND CD3 AND AN IMMUNOLOGICAL DRUG FOR COMBINED USE IN TREATING MULTIPLE MYELOMA” (ENGMAB SARL, priority 2016, published 2022).

T1: huBCMA on HEK cells (Homo sapiens, UniProt Q02223)
T1 construct: expressed in transfected cells; host or cells: HEK cells (HEK-huBCMA)
T1 sequence (Q02223 1-184): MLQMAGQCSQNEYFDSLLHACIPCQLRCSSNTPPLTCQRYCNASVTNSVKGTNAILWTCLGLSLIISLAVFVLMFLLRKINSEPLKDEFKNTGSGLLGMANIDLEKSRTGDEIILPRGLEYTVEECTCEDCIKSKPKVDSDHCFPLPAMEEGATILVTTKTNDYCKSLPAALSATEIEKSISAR

T2: huBCMA Fc(kih) (Homo sapiens, UniProt Q02223)
T2 construct: The extracellular domains of human and cynomolgus BCMA comprised methionine 4 to asparagine 53, and methionine 4 to asparagine 52, respectively; made in house; host or cells: HEK EBNA cells
T2 sequence (Q02223 4-53): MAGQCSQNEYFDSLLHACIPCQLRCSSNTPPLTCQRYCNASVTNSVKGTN


Key:
huBCMA on HEK cells = molecular target: T1, huBCMA on HEK cells; assay: Binding of IgG variants on HEK-huBCMA cells (flow cytometry)
Description: FIGS. 18A-18B. FIG. 18A: Binding affinity of BCMA antibodies on HEK-huBCMA cells as measured by flow cytometry. The anti-BCMA antibodies were used as first antibody then a secondary PE-labeled anti-human Fc was used as detection antibody. […] FIG. 18B: Binding affinity of BCMA antibodies on HEK-huBCMA cells as measured by flow cytometry. The anti-BCMA antibodies were used as first antibody then a secondary PE-labeled anti-human Fc was used as detection antibody.
Due to their experience the inventors selected out of these 70 clones further 27 clones based on their binding properties to huBCMA, cynoBCMA, murineBCMA, and ratio, measured in different assays. Out of these clones 4VH and 9VL clones were selected, which results in […]. Binding affinity on HEK-huBCMA cells was measured (FIG. 18 and Table 2E). […] However Mab21, Mab 22, Mab27, Mab33, Mab39, and Mab42 were selected due to their overall properties, like affinity for huBCMA, cynoBCMA, binding as bispecific antibody to BCMA-positive multiple myeloma cell lines H929, L363 and RPMI-8226 by flow cytometry, killing potency of myeloma cells H929, L363 and RPMI-8226, of viable myeloma plasma cells from patient bone marrow aspirates, and pharmacokinetics (PK)) and pharmacodynamics (killing of BCMA positive cells) data in cynomolgus monkeys.

cynoBCMA Fc(kih) = assay: Biacore T200 SPR, anti-BCMA antibodies to recombinant cynomolgus BCMA Fc(kih); cyno/hu affinity gap; type: binding; conditions: analyte cynoBCMA Fc(kih), 1:1 Langmuir, 25° C.
Experimental: Assessment of binding of anti-BCMA antibodies to recombinant BCMA by surface plasmon resonance (SPR) as follow. All SPR experiments were performed on a Biacore T200 at 25° C. with HBS-EP as running buffer (0.01 M HEPES pH 7.4, 0.15 M NaCl, 3 mM EDTA, 0.005% Surfactant P20, Biacore, Freiburg/Germany). The avidity of the interaction between anti-BCMA antibodies and recombinant BCMA Fc(kih) (human and cynomolgus) was determined. Biotinylated recombinant human and cynomolgus BCMA Fc(kih) were directly coupled on a SA chip following instructions (Biacore, Freiburg/Germany). The immobilization level ranged from 200 to 700 RU. The anti-BCMA antibodies were passed at a 2-fold concentration range (1.95 to 500 nM) with a flow of 30 μL/minutes through the flow cells over 120 seconds. The dissociation was monitored for 180 seconds. Bulk refractive index differences were corrected for by subtracting the response obtained on the reference flow cell. Here, the anti-BCMA antibodies were flown over an empty surface previously activated and deactivated as described in the standard amine coupling kit. Apparent kinetic constants were derived using the Biacore T200 Evaluation Software (vAA, Biacore AB, Uppsala/Sweden), to fit rate equations for 1:1 Langmuir binding by numerical integration, despite the bivalency of the interaction for comparison purposes. The affinity of the interaction between anti-BCMA antibodies and recombinant human BCMA Fc(kih) was also determined. Anti-human Fab antibody (GE Healthcare) was directly coupled on a CMS chip at pH 5.0 using the standard amine coupling kit (Biacore, Freiburg/Germany). The immobilization level was about 6500 RU. Anti-BCMA antibody was captured for 90 seconds at 25 nM. Recombinant human BCMA Fc(kih) was passed at a 4-fold concentration range (1.95 to 500 nM) with a flow of 30 μL/minutes through the flow cells over 120 seconds. The dissociation was monitored for 120 seconds. Bulk refractive index differences were corrected for by subtracting the response obtained on reference flow cell. […] Kinetic constants were derived using the Biacore T100 Evaluation Software (vAA, Biacore AB, Uppsala/Sweden), to fit rate equations for 1:1 Langmuir binding by numerical integration (Table 4).
Based on the affinity values described in Example 2, the affinity of anti-BCMA antibodies to human BCMA vs. cynomolgus BCMA were compared and cyno/hu affinity ratio (gap) values were calculated (Table 5). Affinity cyno/hu gap was calculated as affinity of antibody to cynomolgus BCMA divided by affinity to human BCMA and means that BCMA antibody binds to human BCMA with x fold binding affinity than to cynomolgus BCMA, where x=cyno/hu gap value.

huBCMA Fc(kih) = molecular target: T2, huBCMA Fc(kih); assay: Biacore T200 SPR, anti-BCMA antibodies to recombinant human BCMA Fc(kih); type: binding; conditions: analyte huBCMA Fc(kih), 1:1 Langmuir, 25° C.
Experimental: Assessment of binding of anti-BCMA antibodies to recombinant BCMA by surface plasmon resonance (SPR) as follow. All SPR experiments were performed on a Biacore T200 at 25° C. with HBS-EP as running buffer (0.01 M HEPES pH 7.4, 0.15 M NaCl, 3 mM EDTA, 0.005% Surfactant P20, Biacore, Freiburg/Germany). The avidity of the interaction between anti-BCMA antibodies and recombinant BCMA Fc(kih) (human and cynomolgus) was determined. Biotinylated recombinant human and cynomolgus BCMA Fc(kih) were directly coupled on a SA chip following instructions (Biacore, Freiburg/Germany). The immobilization level ranged from 200 to 700 RU. The anti-BCMA antibodies were passed at a 2-fold concentration range (1.95 to 500 nM) with a flow of 30 μL/minutes through the flow cells over 120 seconds. The dissociation was monitored for 180 seconds. Bulk refractive index differences were corrected for by subtracting the response obtained on the reference flow cell. Here, the anti-BCMA antibodies were flown over an empty surface previously activated and deactivated as described in the standard amine coupling kit. Apparent kinetic constants were derived using the Biacore T200 Evaluation Software (vAA, Biacore AB, Uppsala/Sweden), to fit rate equations for 1:1 Langmuir binding by numerical integration, despite the bivalency of the interaction for comparison purposes. The affinity of the interaction between anti-BCMA antibodies and recombinant human BCMA Fc(kih) was also determined. Anti-human Fab antibody (GE Healthcare) was directly coupled on a CMS chip at pH 5.0 using the standard amine coupling kit (Biacore, Freiburg/Germany). The immobilization level was about 6500 RU. Anti-BCMA antibody was captured for 90 seconds at 25 nM. Recombinant human BCMA Fc(kih) was passed at a 4-fold concentration range (1.95 to 500 nM) with a flow of 30 μL/minutes through the flow cells over 120 seconds. The dissociation was monitored for 120 seconds. Bulk refractive index differences were corrected for by subtracting the response obtained on reference flow cell. Here, recombinant BCMA was flown over a surface with immobilized anti-human Fab antibody but on which HBS-EP has been injected rather than anti-BCMA antibody. Kinetic constants were derived using the Biacore T100 Evaluation Software (vAA, Biacore AB, Uppsala/Sweden), to fit rate equations for 1:1 Langmuir binding by numerical integration (Table 4).

Molecule	binding to huBCMA on HEK cells compared with Mab 83A10 (huBCMA on HEK cells)	Koff (cynoBCMA Fc(kih)) [s⁻¹]	Kon (cynoBCMA Fc(kih)) [M⁻¹ s⁻¹]	Koff (huBCMA Fc(kih)) [s⁻¹]	Kon (huBCMA Fc(kih)) [M⁻¹ s⁻¹]
Mab 21: anti-BCMA antibody, VH SEQ ID NO:10, VL SEQ ID NO:12 (antibody, V domains shown, Variable region VH; Variable region VL) VH: EVQLLESGGGLVQPGGSLRLSCAASGFTFSDNAMGWVRQAPGKGLEWVSAISGPGSSTYYADSVKGRFTISRDNSKNTLYLQMNSLRAEDTAVYYCAKVLGWFDYWGQGTLVTVSS VL: EIVLTQSPGTLSLSPGERATLSCRASQSVSEYYLAWYQQKPGQAPRLLIEHASTRATGIPDRFSGSGSGTDFTLTISRLEPEDFAVYYCQQYGYPPDFTFGQGTKVEIK	not significantly better	0.000235	491000	4.39e-05	851000
Mab 42: anti-BCMA antibody, VH SEQ ID NO:10, VL SEQ ID NO:14 (antibody, V domains shown, Variable region VH; Variable region VL Mab42) VH: EVQLLESGGGLVQPGGSLRLSCAASGFTFSDNAMGWVRQAPGKGLEWVSAISGPGSSTYYADSVKGRFTISRDNSKNTLYLQMNSLRAEDTAVYYCAKVLGWFDYWGQGTLVTVSS VL: EIVLTQSPGTLSLSPGERATLSCRASQSVSDEYLSWYQQKPGQAPRLLIHSASTRATGIPDRFSGSGSGTDFTLAISRLEPEDFAVYYCQQYGYPPDFTFGQGTKVEIK	not significantly better	0.000453	707000	0.000298	803000
Mab 33: anti-BCMA antibody, VH SEQ ID NO:39, VL SEQ ID NO:12 (antibody, V domains shown, Mab33 VH; Variable region VL) VH: EVQLLESGGGLVQPGGSLRLSCAASGFTFYTNAMGWVRQAPGKGLEWVSAINRFGGSTYYADSVKGRFTISRDNSKNTLYLQMNSLRAEDTAVYYCAKVLGWFDYWGQGTLVTVSS VL: EIVLTQSPGTLSLSPGERATLSCRASQSVSEYYLAWYQQKPGQAPRLLIEHASTRATGIPDRFSGSGSGTDFTLTISRLEPEDFAVYYCQQYGYPPDFTFGQGTKVEIK		9.76e-05	132000	3.55e-05	200000
Mab 22: anti-BCMA antibody, VH SEQ ID NO:10, VL SEQ ID NO:13 (antibody, V domains shown, Variable region VH; Variable region VL Mab22) VH: EVQLLESGGGLVQPGGSLRLSCAASGFTFSDNAMGWVRQAPGKGLEWVSAISGPGSSTYYADSVKGRFTISRDNSKNTLYLQMNSLRAEDTAVYYCAKVLGWFDYWGQGTLVTVSS VL: EIVLTQSPGTLSLSPGERATLSCRASQSVSSYYLAWYQQKPGQAPRLLISGAGSRATGIPDRFSGSGSGTDFTLTISRLEPEDFAVYYCQQYGYPPDFTFGQGTKVEIK	not significantly better	0.000442	454000	5.15e-05	814000
Mab 27: anti-BCMA antibody, VH SEQ ID NO:38, VL SEQ ID NO:12 (antibody, V domains shown, Mab27 VH; Variable region VL) VH: EVQLLESGGGLVQPGGSLRLSCAASGFTFSSAPMGWVRQAPGKGLEWVSAISYIGHTYYADSVKGRFTISRDNSKNTLYLQMNSLRAEDTAVYYCAKVLGWFDYWGQGTLVTVSS VL: EIVLTQSPGTLSLSPGERATLSCRASQSVSEYYLAWYQQKPGQAPRLLIEHASTRATGIPDRFSGSGSGTDFTLTISRLEPEDFAVYYCQQYGYPPDFTFGQGTKVEIK	not significantly better	0.000455	216000	5.93e-05	359000
Mab 39: anti-BCMA antibody, VH SEQ ID NO:40, VL SEQ ID NO:12 (antibody, V domains shown, Mab39 VH; Variable region VL) VH: EVQLLESGGGLVQPGGSLRLSCAASGFTFTQNAMGWVRQAPGKGLEWVSAISPTGFSTYYADSVKGRFTISRDNSKNTLYLQMNSLRAEDTAVYYCAKVLGWFDYWGQGTLVTVSS VL: EIVLTQSPGTLSLSPGERATLSCRASQSVSEYYLAWYQQKPGQAPRLLIEHASTRATGIPDRFSGSGSGTDFTLTISRLEPEDFAVYYCQQYGYPPDFTFGQGTKVEIK	not significantly better	0.000467	215000	5.58e-05	361000
